The numbers were not newly measured in article PMC5331467, which cites them from elsewhere.

For this data set, the target named is Tyr7 (UniProt position 7, SHHWGYGKHNG). Nature of the data set: NMR (jointly with neutron crystallography).

As to “Carbonic anhydrase II (CA-II) (Homo sapiens)”, the pKa is on record as 7.1.
